Source: the supplement of paper PMC9732359
± gives the uncertainty stated by the source.

Experiment: protein stability index of a GFP-peptide fusion (yeast GPS) (PSI 1-4); higher = more stable; sorted into four equal gates, so the index is relative within each strain
In short: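 Sequencing reads from sorted gates were used to score each peptide. The library consisted of tiled 17-residue yeast protein peptides fused downstream of GFP on a Cherry-expressing plasmid, pooled and carried in yeast. Mid-log cultures in leucine-free medium were split into four equal gates by GFP/Cherry ratio, and each gate's plasmids were PCR-amplified and Illumina-sequenced. The protein stability index adds up, over all gates, the read frequency multiplied by the gate number.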

**Q.** For TERVVEIGPSPTLAGMA [FAS2], which protein stability index (doa10∆) is on record?
**A.** 2.501 ± 0.018

**Q.** What about the protein stability index (pdr5∆) of the same sequence?
**A.** 2.599 ± 0.017

**Q.** What about the protein stability index (san1∆) of the same sequence?
**A.** 2.496 ± 0.019

**Q.** And the protein stability index (ubr1∆)?
**A.** 2.496 ± 0.012

**Q.** Which protein stability index (doa10∆) does the source give for LENKENGLLNEISRLKT [SMC2] here?
**A.** 3.31 ± 0.18

**Q.** And the protein stability index (pdr5∆)?
**A.** 3.29 ± 0.079

**Q.** What about the protein stability index (san1∆) of the same sequence?
**A.** 3.15 ± 0.094

**Q.** And the protein stability index (ubr1∆)?
**A.** 3.18 ± 0.13

**Q.** What does the source list for RLMMNSKVGSADTGRDD [RPN11]?
**A.** protein stability index (doa10∆): 3.39 ± 0.085; protein stability index (pdr5∆): 3.36 ± 0.068; protein stability index (san1∆): 3.51 ± 0.058; protein stability index (ubr1∆): 3.52 ± 0.07

**Q.** With DCENFFNYVQECPAIPI [YJL039C/NUP192] as the sequence, how does the protein stability index (doa10∆) read?
**A.** 2.49 ± 0.075

**Q.** And the protein stability index (pdr5∆)?
**A.** 2.93 ± 0.064

**Q.** What about the protein stability index (san1∆) of the same sequence?
**A.** 3.23 ± 0.069

**Q.** And the protein stability index (ubr1∆)?
**A.** 2.99 ± 0.05

**Q.** Which protein stability index (doa10∆) does the source give for DSGRGAPLAKVVFRDPY [RPL2A] here?
**A.** 3.06 ± 0.12

**Q.** What about the protein stability index (pdr5∆) of the same sequence?
**A.** 2.83 ± 0.13

**Q.** What about the protein stability index (san1∆) of the same sequence?
**A.** 3.03 ± 0.072

**Q.** What about the protein stability index (ubr1∆) of the same sequence?
**A.** 3.01 ± 0.067

**Q.** Which protein stability index (doa10∆) does the source give for LFDAAFYMKKDAVEGVS [RPO31] here?
**A.** 2.75 ± 0.24

**Q.** And the protein stability index (pdr5∆)?
**A.** 2.96 ± 0.14

**Q.** And the protein stability index (san1∆)?
**A.** 3.31 ± 0.076

**Q.** What about the protein stability index (ubr1∆) of the same sequence?
**A.** 2.65 ± 0.11

**Q.** With VNGSPITLVEPEILRFK [RPS16A] as the sequence, how does the protein stability index (pdr5∆) read?
**A.** 2.79 ± 0.15

**Q.** What about the protein stability index (ubr1∆) of the same sequence?
**A.** 3.36 ± 0.17

**Q.** Which protein stability index (doa10∆) does the source give for STNESNKSISDEITEDM [SSN2] here?
**A.** 2.5 ± 0.05

**Q.** And the protein stability index (pdr5∆)?
**A.** 2.75 ± 0.057

**Q.** And the protein stability index (san1∆)?
**A.** 2.8 ± 0.05

**Q.** And the protein stability index (ubr1∆)?
**A.** 2.98 ± 0.045

**Q.** What does the source list for NIYDQLRNKLIESNKLA [RRP6]?
**A.** protein stability index (doa10∆): 2.34 ± 0.073; protein stability index (pdr5∆): 2.45 ± 0.084; protein stability index (san1∆): 1.9 ± 0.09; protein stability index (ubr1∆): 2.22 ± 0.073

**Q.** Which protein stability index (doa10∆) does the source give for DRMAKYLHIRDKILQLN [PGD1] here?
**A.** 2.32 ± 0.12

**Q.** And the protein stability index (pdr5∆)?
**A.** 2.01 ± 0.079

**Q.** What about the protein stability index (san1∆) of the same sequence?
**A.** 1.76 ± 0.099

**Q.** What about the protein stability index (ubr1∆) of the same sequence?
**A.** 1.77 ± 0.049

**Q.** For VKSLRQGKSKLIIIAAN [RPL30], which protein stability index (doa10∆) is on record?
**A.** 2.03 ± 0.11

**Q.** What about the protein stability index (pdr5∆) of the same sequence?
**A.** 1.4 ± 0.11

**Q.** What about the protein stability index (san1∆) of the same sequence?
**A.** 1.62 ± 0.22

**Q.** What about the protein stability index (ubr1∆) of the same sequence?
**A.** 1.96 ± 0.084

**Q.** What does the source list for ADTIDHDELIDSIPRDV [YGL172W/NUP49]?
**A.** protein stability index (doa10∆): 2.95 ± 0.098; protein stability index (pdr5∆): 3.24 ± 0.085; protein stability index (san1∆): 3.07 ± 0.056; protein stability index (ubr1∆): 2.88 ± 0.075

**Q.** With TAAQVANVELTPSNIRS [RPC34] as the sequence, how does the protein stability index (doa10∆) read?
**A.** 2.79 ± 0.1

**Q.** And the protein stability index (pdr5∆)?
**A.** 2.82 ± 0.071

**Q.** What about the protein stability index (san1∆) of the same sequence?
**A.** 2.8 ± 0.085

**Q.** What about the protein stability index (ubr1∆) of the same sequence?
**A.** 2.87 ± 0.093

**Q.** For VKGRENELLLPSELNQL [RPC82], which protein stability index (san1∆) is on record?
**A.** 3.35 ± 0.13

**Q.** For NVDVCVMEIGKDAEYLR [PUP1], which protein stability index (doa10∆) is on record?
**A.** 2.84 ± 0.068

**Q.** What about the protein stability index (pdr5∆) of the same sequence?
**A.** 2.73 ± 0.063

**Q.** What about the protein stability index (san1∆) of the same sequence?
**A.** 2.7 ± 0.066

**Q.** What about the protein stability index (ubr1∆) of the same sequence?
**A.** 2.39 ± 0.051

**Q.** For GIIEPSLKALASKYNCD [RPL40A], which protein stability index (doa10∆) is on record?
**A.** 3.44 ± 0.17

**Q.** What about the protein stability index (pdr5∆) of the same sequence?
**A.** 3.27 ± 0.23

**Q.** What about the protein stability index (san1∆) of the same sequence?
**A.** 3.09 ± 0.085

**Q.** What about the protein stability index (ubr1∆) of the same sequence?
**A.** 3.19 ± 0.2

**Q.** Which protein stability index (doa10∆) does the source give for GNKKYRALRIETGNFSW [RPS8A] here?
**A.** 2.87 ± 0.038

**Q.** What about the protein stability index (pdr5∆) of the same sequence?
**A.** 3.15 ± 0.044

**Q.** And the protein stability index (san1∆)?
**A.** 3.14 ± 0.036

**Q.** And the protein stability index (ubr1∆)?
**A.** 2.85 ± 0.03

**Q.** With EGSWDRGIPRISTLFQR [PRP8] as the sequence, how does the protein stability index (doa10∆) read?
**A.** 2.79 ± 0.19

**Q.** What about the protein stability index (san1∆) of the same sequence?
**A.** 3.24 ± 0.14

**Q.** And the protein stability index (ubr1∆)?
**A.** 3.06 ± 0.11

**Q.** With SPIPFPPLTYKNDTKIL [PRP8] as the sequence, how does the protein stability index (doa10∆) read?
**A.** 2.91 ± 0.057

**Q.** And the protein stability index (pdr5∆)?
**A.** 2.56 ± 0.045

**Q.** What about the protein stability index (san1∆) of the same sequence?
**A.** 2.73 ± 0.059

**Q.** What about the protein stability index (ubr1∆) of the same sequence?
**A.** 2.24 ± 0.029

**Q.** For YNHNDGGDGRDYKGAKL [RRI1], which protein stability index (doa10∆) is on record?
**A.** 2.57 ± 0.13

**Q.** What about the protein stability index (pdr5∆) of the same sequence?
**A.** 3.2 ± 0.088

**Q.** What about the protein stability index (san1∆) of the same sequence?
**A.** 3.14 ± 0.078

**Q.** And the protein stability index (ubr1∆)?
**A.** 2.96 ± 0.092

**Q.** With PGHVNFMDETAVALAAS [SNU114] as the sequence, how does the protein stability index (doa10∆) read?
**A.** 2.4 ± 0.062

**Q.** What about the protein stability index (pdr5∆) of the same sequence?
**A.** 2.7 ± 0.1

**Q.** What about the protein stability index (san1∆) of the same sequence?
**A.** 2.29 ± 0.073

**Q.** And the protein stability index (ubr1∆)?
**A.** 2.34 ± 0.066

**Q.** For VLEDVYRCFAQLELRQL [RRI2], which protein stability index (doa10∆) is on record?
**A.** 2.15 ± 0.25

**Q.** What about the protein stability index (pdr5∆) of the same sequence?
**A.** 2.61 ± 0.17

**Q.** And the protein stability index (san1∆)?
**A.** 2.5 ± 0.12

**Q.** What about the protein stability index (ubr1∆) of the same sequence?
**A.** 2.67 ± 0.17

**Q.** For PVTLAKVIKVLGRTGSR [RPS28A], which protein stability index (doa10∆) is on record?
**A.** 1.96 ± 0.083

**Q.** And the protein stability index (pdr5∆)?
**A.** 2.59 ± 0.077

**Q.** And the protein stability index (san1∆)?
**A.** 2.09 ± 0.11

**Q.** And the protein stability index (ubr1∆)?
**A.** 2.5 ± 0.13

**Q.** What does the source list for KNLISRINTLPQVQLPV [ECM29]?
**A.** protein stability index (doa10∆): 2.85 ± 0.13; protein stability index (pdr5∆): 2.86 ± 0.1; protein stability index (san1∆): 2.9 ± 0.16; protein stability index (ubr1∆): 2.83 ± 0.17

**Q.** Which results are given for LWGPHGLNSDAEEVRNF [ECM29]?
**A.** protein stability index (doa10∆): 3.77 ± 0.29; protein stability index (pdr5∆): 3.59 ± 0.15; protein stability index (san1∆): 3.5 ± 0.27; protein stability index (ubr1∆): 3.82 ± 0.16

**Q.** Which protein stability index (doa10∆) does the source give for DNVDFILSNVDLAMANS [RPB3] here?
**A.** 3.07 ± 0.057

**Q.** What about the protein stability index (pdr5∆) of the same sequence?
**A.** 3.08 ± 0.054

**Q.** What about the protein stability index (san1∆) of the same sequence?
**A.** 3.12 ± 0.064

**Q.** What about the protein stability index (ubr1∆) of the same sequence?
**A.** 2.97 ± 0.05

**Q.** Which results are given for EAAAVRDLSEASVYPEY [RPS26A]?
**A.** protein stability index (doa10∆): 2.25 ± 0.076; protein stability index (pdr5∆): 2.53 ± 0.082; protein stability index (san1∆): 2.65 ± 0.076; protein stability index (ubr1∆): 2.93 ± 0.09
